Data set [1] deals with EL222 L120K variant (Erythrobacter litoralis HTCC2594). Description: SEC-MALS. For orientation: Size exclusion chromatography separates by hydrodynamic size, large species first.
Data set [2] has as its target EL222 S137Y variant (Erythrobacter litoralis HTCC2594). Description: SEC-MALS.
Data set [3] addresses EL222 V41I:L52I:A79Q:V121I variant (AQTrip) (Erythrobacter litoralis HTCC2594). Description: SEC-MALS.
For data set [4] the target is unchanged. As to the kind of experiment: SEC-MALS. This is another data set of the same source.
For data set [5] the target is unchanged. As to the kind of experiment: SEC-MALS. The source holds these as a separate data set.
The data set “native gel or EMSA” concerns the molecule itself. As to the kind of experiment: native gel or EMSA.

By stoichiometry N is commonly meant the number of molecules, sites or subunits per partner or assembly.

Where two headings read alike, the source gives them in different places.

As for EL222 L120K variant (natural protein), the stoichiometry N in data set [1] was 2.

Molecule EL222 S137Y variant (natural protein) displayed a stoichiometry N in data set [2] of 2.

As to “EL222 V41I:L52I:A79Q:V121I variant (AQTrip) (natural protein)”, the stoichiometry N in data set [3] was found to be 4; in data set [4], 2; in data set [5], 2.

B1: His6-Gβ1-tagged wild-type EL222 (natural protein, Erythrobacter litoralis HTCC2594, UniProt Q2NB98 1-225, looked up)
chain: MLDMGQDRPIDGSGAPGADDTRVEVQPPAQWVLDLIEASPIASVVSDPRLADNPLIAINQAFTDLTGYSEEECVGRNCRFLAGSGTEPWLTDKIRQGVREHKPVLVEILNYKKDGTPFRNAVLVAPIYDDDDELLYFLGSQVEVDDDQPNMGMARRERAAEMLKTLSPRQLEVTTLVASGLRNKEVAARLGLSEKTVKMHRGLVMEKLNLKTSADLVRIAVEAGI
B1: in the data set “native gel or EMSA”, the “stoichiometry N” value was 2.

(Values after PMC3813961 (Biochemistry, 2013).)
